Data: PMC12996321

What was measured:
[1] = biological target: recombinant human histone octamer assembled into mononucleosomes on 250 bp 601 Widom DNA (human) (UniProt Q71DI3); test: single-molecule TIRF colocalisation
Halo-Sox2 = Halo-Sox2 (UniProt P48432 1-319); test: single-molecule TIRF
Chain of Halo-Sox2 (P48432 whole entry): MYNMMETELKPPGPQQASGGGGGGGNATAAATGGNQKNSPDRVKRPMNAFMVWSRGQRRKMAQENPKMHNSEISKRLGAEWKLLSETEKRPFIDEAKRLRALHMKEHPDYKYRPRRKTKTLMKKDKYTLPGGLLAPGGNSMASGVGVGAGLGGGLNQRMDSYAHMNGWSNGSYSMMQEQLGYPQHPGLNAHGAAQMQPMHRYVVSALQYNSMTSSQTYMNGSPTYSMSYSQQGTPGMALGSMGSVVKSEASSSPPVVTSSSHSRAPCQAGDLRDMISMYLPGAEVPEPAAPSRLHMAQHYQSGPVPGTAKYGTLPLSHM

Chain of Halo-Sox2 (recombinant, JF549-labelled) (P48432 whole entry): as above

Row | residence time tau2 on MN-6 (state attributed to TF-histone interactions) [1] [s] | Molecule | binding result (Halo-Sox2)
1 | 3.4 | Halo-Sox2 (recombinant, JF549-labelled) (from UniProt P48432 1-319) (natural protein) | –
2 | – | Sdna3 DNA+ 50 bp (dsDNA) DNA 1: AGCACCGCTTAAACGCACGTACGCTTTGTTCCCCGCGTTTTAACCGCCAA DNA 2: TTGGCGGTTAAAACGCGGGGAACAAAGCGTACGTGCGTTTAAGCGGTGCT | binds
